Assays:
Hybrid CD200R1 MH = target: T1, Hybrid CD200R1 MH (mouse;human, UniProt Q9ES57;Q8TD46); experiment: ELISA, plate-bound MH hybrid (1 ug/mL), antibody 0.0192-300 nM, O.D 450 nm; panel 'P001 MH domain-2)'
T1 construct: single domain; mouse D1 over human D2; also called MH hybrid domain; P001 MH domain
T1 sequence (hybrid extracellular part, looked up): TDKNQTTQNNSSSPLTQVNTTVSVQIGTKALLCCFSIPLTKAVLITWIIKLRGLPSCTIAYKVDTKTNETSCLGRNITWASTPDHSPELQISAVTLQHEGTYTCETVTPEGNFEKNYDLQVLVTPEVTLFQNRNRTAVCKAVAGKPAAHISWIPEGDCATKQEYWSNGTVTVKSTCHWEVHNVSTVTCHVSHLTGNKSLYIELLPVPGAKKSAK
Method: Recombinant proteins were produced from the extracellular Ig-like V-type domain and Ig-like C2-type domain of human CD200R1, each designed as human-mouse (HM hybrid domain) and mouse-human (MH hybrid domain) recombinant proteins. A 96-well plate was coated at a concentration of 1 μg/mL with each protein at 4° C. for 16 hours and blocked with 3% skim milk. […] After color development with TMB substrate solution (Thermo Scientific, 34029, 1-Step™ Ultra TMB-ELISA Substrate Solution), the color reaction was stopped with a stop solution (Invitrogen, SS04, ELISA Stop Solution), and the absorbance was measured at an O.D. of 450 nm.

[1] = target: T2, monkey CD200RLa (Sino Biological, 11576-C02H) recombinant protein (monkey (cyno), UniProt A0A2K5W6R0 30-246); experiment: ELISA, plate-bound monkey CD200RLa (2 ug/mL), antibody 0.0192-300 nM, O.D 450 nm; panel 'recombinant cynomolgus CD200RLa/Fc'
T2 construct: Bought; construct not described; also called cyno CD200RLa
T2 sequence: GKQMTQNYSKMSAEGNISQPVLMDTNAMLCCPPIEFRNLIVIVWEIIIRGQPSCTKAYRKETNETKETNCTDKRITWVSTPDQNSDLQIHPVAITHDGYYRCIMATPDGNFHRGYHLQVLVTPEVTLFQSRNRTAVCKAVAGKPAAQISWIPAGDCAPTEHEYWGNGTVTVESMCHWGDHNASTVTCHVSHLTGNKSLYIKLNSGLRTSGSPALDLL
Method: 96-well plates were coated with human CD200RLa (Sino Biological, 11620-H08H) and monkey CD200RLa (Sino Biological, 11576-C02H) recombinant proteins at a concentration of 2 μg/mL at 4° C. for 16 hours, and blocked with 3% skim milk for 1 hour. […] Color was developed with a TMB substrate solution (Thermo Scientific, 34029, 1-Step™ Ultra TMB-ELISA Substrate Solution). The color reaction was stopped with stop solution (Invitrogen, SS04, ELISA Stop Solution).

B1: P001009 (IgG) (antibody, V domains shown)
VH: EVQLLESGGGLVQPGGSLRLSCAASGFTFSSYDMSWVRQAPGKGLEWVSWISHGGGSIYYADSVKGRFTISRDNSKNTLYLQMNSLRAEDTAVYYCARDAPAYSAPLFDYWGQGTLVTVSS
VL: QSVLTQPPSASGTPGQRVTISCSGSSSNIGNNAVNWYQQLPGTAPKLLIYYDSNRPSGVPDRFSGSKSGTSASLAISGLRSEDEADYYCAAWDDSLSGYVFGGGTKLTVL
notes: also called P001009 WT; P001009 wt
B1: no binding (tested: 300 nM) (Hybrid CD200R1 MH); no binding (tested: 300 nM) [1].
